Data taken from US20130338214.

Molecular target: GST-labeled ROR1 (intracellular domain), recombinant, purified from Sf9 insect cells (UniProt Q01973)
Sequence (Q01973 428-937): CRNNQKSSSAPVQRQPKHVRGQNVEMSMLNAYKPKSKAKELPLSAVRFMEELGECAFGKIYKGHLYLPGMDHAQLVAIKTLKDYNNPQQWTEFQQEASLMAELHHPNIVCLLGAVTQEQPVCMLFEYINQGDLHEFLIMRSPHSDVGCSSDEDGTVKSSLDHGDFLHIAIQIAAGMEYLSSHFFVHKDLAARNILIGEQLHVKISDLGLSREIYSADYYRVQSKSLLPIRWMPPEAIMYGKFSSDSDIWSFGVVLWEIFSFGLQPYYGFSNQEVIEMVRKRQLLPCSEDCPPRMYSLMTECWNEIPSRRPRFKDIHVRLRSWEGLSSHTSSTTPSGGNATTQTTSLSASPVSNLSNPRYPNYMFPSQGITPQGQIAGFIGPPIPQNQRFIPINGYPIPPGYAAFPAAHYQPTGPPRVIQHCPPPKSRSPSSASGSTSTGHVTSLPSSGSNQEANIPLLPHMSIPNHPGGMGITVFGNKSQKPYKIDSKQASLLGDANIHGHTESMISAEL

Substance: endogenous c-Src (NCI-H1975, 293T, NCI-H23 cells)
- in vitro ROR1 kinase assay, western blot with anti-phospho-c-Src antibody (c-Src immunoprecipitated from NCI-H23 and 293T lysates as substrate): c-Src was phosphorylated by ROR1
